Results published in US20210301000A1.
Where a chain is given by its changes, count along the chain named.

B1: Mutation 3 (antibody, V domains shown)
VH: QVQLQQSGAELVRPGTSVKISCKASGYTFTDYWIGWVKQRPGHGLEWIGDMWPGDLYINYQEKFKGKATLTADTSSNTAYMQLSSLTSEDSAVYFCTNFITVGGLDYWGRGTSLTVSS
VL: DVVMTQTPLTLSVTIGQPASISCKSSQSLLSSDGRTYLNWLLQRPGQSPKRLIYLVTKVDSGVPDRFTGSGSVTDFTLKISRVESEDLGVYYCWQGTHFFHTFGAGTKLEVKR
B2: recombinant anti-dengue virus NS1 11E2 antibody (WT) (antibody, mouse IgG2a, kappa, V domains shown)
VH: B1 VH with T28S, W52V
VL: B1 VL with Q27N, S31D, R35K, V59I, Q95W, F100P
B3: Mutation 1-46 (antibody, V domains shown)
VH: B1 VH with D31E, W52F, L56I, Q61N, V102L, L105I
VL: B1 VL with Q27N, S31D, T57S, Q95Y, F100P
B4: WT 1-1 (antibody, V domains shown)
VH: B1 VH with T28S, D31E, W52V, Q61N, L105V
VL: B1 VL with S31E, R35K, V59I, Q95Y, F100A
B5: Mutation 1-40 (antibody, V domains shown)
VH: B1 VH with W52F, L56V, V102L, L105I
VL: B1 VL with Q27N, S31D, T57S, V59I, Q95Y, F100P
B6: WT 1-7 (antibody, V domains shown)
VH: B1 VH with T28S, D31E, W52V, L105V
VL: B1 VL with S31E, R35K, V59I, Q95Y, F100A
B7: WT 1-30 (antibody, V domains shown)
VH: B1 VH with T28S, D31E, W52V, Q61N, I100L, L105V
VL: B1 VL with Q27N, S31E, R35K, V59I, Q95W, F100A
B8: WT 1-20 (antibody, V domains shown)
VH: B1 VH with T28S, W52V, L56I
VL: B1 VL with S31E, V59L, Q95W, F100A
B9: Mutation 1-28 (antibody, V domains shown)
VH: B1 VH with W52F, L56I, Q61N, V102L, L105I
VL: B1 VL with Q27N, S31D, T57S, V59I, Q95Y, F100P
B10: Mutation 1-19 (antibody, V domains shown)
VH: B1 VH with D31E, W52F, L56I, Q61N, V102L, L105I
VL: B1 VL with Q27N, S31D, T57S, V59I, Q95Y, F100P
B11: Mutation 1-25 (antibody, V domains shown)
VH: B1 VH with D31E, W52F, L56V, I100L, V102L
VL: B1 VL with Q27N, S31D, T57S, V59I, Q95Y, F100P
B12: WT 1-4 (antibody, V domains shown)
VH: B1 VH with T28S, W52V, L56I, I100L, L105V
VL: B1 VL with S31E, V59I, Q95Y, F100A

Each binder was assayed against (DN-(I+II+III+IV)-NS) antigen (self-produced, expressed in insects) (dengue virus) (assay: capture ELISA, antibody at 333.333 ng/ml).

Point of comparison: B1, OD450 (ref 630) 0.347 OD. Against it:
- B2 — higher, 2.38 OD

The binders below were run against (DN-(I+II+III+IV)-NS) antigen (self-produced, expressed in insects) (dengue virus) (assay: capture ELISA, antibody at 1000 ng/ml).

Point of comparison: B2, OD450 (ref 630) 2.32 OD. Against it:
- B1 — lower, 0.847 OD

Each binder was assayed against (DN-(I+II+III+IV)-NS) antigen (self-produced, expressed in insects) (dengue virus) (assay: capture ELISA, antibody at 4.115 ng/ml).

Binder B2 has an OD450 (ref 630) of 0.448 OD.

The binders below were run against (DN-(I+II+III+IV)-NS) antigen (self-produced, expressed in insects) (dengue virus) (assay: capture ELISA, antibody at 12.346 ng/ml).

Binder B2 has an OD450 (ref 630) of 0.838 OD.

These binders were tested against (DN-(I+II+III+IV)-NS) antigen (self-produced, expressed in insects) (dengue virus) (assay: capture ELISA, antibody at 1.372 ng/ml).

For B2, the OD450 (ref 630) was 0.297 OD.

These binders were tested against (DN-(I+II+III+IV)-NS) antigen (self-produced, expressed in insects) (dengue virus) (assay: capture ELISA, antibody at 37.037 ng/ml).

With B2 the OD450 (ref 630) was 1.66 OD.

The binders below were run against (DN-(I+II+III+IV)-NS) antigen (self-produced, expressed in insects) (dengue virus) (assay: capture ELISA, antibody at 111.111 ng/ml).

Point of comparison: B1, OD450 (ref 630) 0.056 OD. Against it:
- B2 — higher, 2.2 OD

These binders were tested against DN quality control product recombinant protein (a recombinant antigen produced by the company itself) (dengue virus) (assay: AMO sensor, antibody on sensor, antigen in solution).

Point of comparison: B8, Kd 45.9 nM. Against it:
- B3 — 5.7-fold lower, 8 nM
- B4 — 3.6-fold lower, 12.8 nM
- B5 — 11-fold lower, 4.05 nM
- B6 — within 1.5-fold, 65.5 nM
- B7 — 2.2-fold lower, 20.4 nM
- B9 — 7-fold lower, 6.59 nM
- B10 — 9.7-fold lower, 4.72 nM
- B11 — 7.6-fold lower, 6.04 nM
- B12 — 1.6-fold lower, 28 nM
- B2 — within 1.5-fold, 58.8 nM

Point of comparison: B12, koff 0.000142 s⁻¹. Against it:
- B3 — 3.4-fold higher, 0.000479 s⁻¹
- B4 — 2.4-fold lower, 5.86e-05 s⁻¹
- B5 — within 1.5-fold, 0.000171 s⁻¹
- B6 — 1.6-fold higher, 0.000231 s⁻¹
- B7 — within 1.5-fold, 0.000149 s⁻¹
- B8 — within 1.5-fold, 0.000143 s⁻¹
- B9 — 2.4-fold higher, 0.000337 s⁻¹
- B10 — 2-fold higher, 0.000279 s⁻¹
- B11 — 1.9-fold higher, 0.000273 s⁻¹
- B2 — 2.8-fold higher, 0.000398 s⁻¹

Point of comparison: B8, kon 3120 M⁻¹ s⁻¹. Against it:
- B3 — 19-fold higher, 59900 M⁻¹ s⁻¹
- B4 — within 1.5-fold, 4570 M⁻¹ s⁻¹
- B5 — 14-fold higher, 42300 M⁻¹ s⁻¹
- B6 — within 1.5-fold, 3530 M⁻¹ s⁻¹
- B7 — 2.3-fold higher, 7280 M⁻¹ s⁻¹
- B9 — 16-fold higher, 51200 M⁻¹ s⁻¹
- B10 — 19-fold higher, 59200 M⁻¹ s⁻¹
- B11 — 14-fold higher, 45100 M⁻¹ s⁻¹
- B12 — 1.6-fold higher, 5080 M⁻¹ s⁻¹
- B2 — 2.2-fold higher, 6770 M⁻¹ s⁻¹

The binders below were run against (DN-(I+II+III+IV)-NS) antigen (self-produced, expressed in insects) (dengue virus) (assay: capture ELISA, antibody at 0 ng/ml (blank)).

B2 showed an OD450 (ref 630) of 0.163 OD.
